Measurements taken from patent publication US20220332804A1 (CSL INNOVATION, published 2022).
Where a chain is given by its changes, count along the chain named.

Experiments:
Experiment in all cases: SPR, KD relative to WT C2;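 also: biacore SPR at 37 °C, anti-C2 mAbs captured on anti-human IgG chips with alanine or serine point mutants of C2 as analyte, KD from 1:1 fit compared with wild-type C2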
human C2 Q447A = biological target: T1, human C2 Q447A (human, UniProt P06681 21-752)
T1 sequence: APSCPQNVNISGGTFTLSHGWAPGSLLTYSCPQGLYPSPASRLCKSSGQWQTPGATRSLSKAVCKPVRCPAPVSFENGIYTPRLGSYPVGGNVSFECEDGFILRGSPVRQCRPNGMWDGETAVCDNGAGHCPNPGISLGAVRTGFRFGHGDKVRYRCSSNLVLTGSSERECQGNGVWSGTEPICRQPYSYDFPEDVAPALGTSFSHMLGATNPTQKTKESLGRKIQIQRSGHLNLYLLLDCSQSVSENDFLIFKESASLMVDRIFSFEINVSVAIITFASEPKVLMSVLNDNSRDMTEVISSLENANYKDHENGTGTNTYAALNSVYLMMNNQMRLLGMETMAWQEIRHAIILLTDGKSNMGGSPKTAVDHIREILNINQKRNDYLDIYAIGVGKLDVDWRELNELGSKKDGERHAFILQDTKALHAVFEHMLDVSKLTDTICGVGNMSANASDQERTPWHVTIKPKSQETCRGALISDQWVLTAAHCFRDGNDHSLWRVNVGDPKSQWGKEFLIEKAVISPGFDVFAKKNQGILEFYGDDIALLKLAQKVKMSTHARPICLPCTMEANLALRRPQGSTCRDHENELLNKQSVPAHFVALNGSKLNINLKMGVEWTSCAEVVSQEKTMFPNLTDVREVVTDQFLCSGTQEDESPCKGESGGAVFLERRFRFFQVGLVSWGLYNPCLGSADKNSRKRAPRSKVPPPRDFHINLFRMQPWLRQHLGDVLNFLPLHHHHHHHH
Method: (§1) Surface plasmon resonance (SPR, Biacore) was used for all binding affinity analyses. In brief, goat anti-human IgG was directly immobilised onto the carboxymethyl dextran surface of CM5 sensorchips to approximately 12,000 RU using standard NHS/EDC chemistry at pH 5. The immobilised antibody surface was pre-conditioned with ten injections of polyclonal human IgG (Privigen 60 s) prepared at 1 μg/mL. Ligands (anti-C2 mAbs) were captured at the beginning of each cycle as described below. An adjacent spot or flow cell in which only Polyclonal IgG was capture was used as a reference surface. The goat anti-human IgG Fc antibody surface was regenerate in 100 mM H3PO4, injected for 45 seconds at the end of each cycle. Experiments were performed at 37° C. and the flow rate of each experiment was kept constant at 30 μL/min.
(§2) Sensogram data was double-referenced against a reference anti-IgG surface (i.e. minus anti-C2 mAb) and blank buffer injections obtained within each experiment. The binding data was fit to 1:1 (kinetic or steady-state) model using local Rmax and null refraction index (RI=0) when appropriate. Buffers and solutions were filtered (0.22 μm) prior to use.

human C2 K457A = biological target: T2, human C2 K457A (human, UniProt P06681 21-752)
T2 sequence: T1 sequence with A427Q, K437A
Method: as §1, §2

human C2 K329A = biological target: T3, human C2 K329A (human, UniProt P06681 21-752)
T3 sequence: T1 sequence with K309A, A427Q
Method: as §1, §2

human C2 F689A = biological target: T4, human C2 F689A (human, UniProt P06681 21-752)
T4 sequence: T1 sequence with A427Q, F669A
Method: as §1, §2

B1: RF16-242 (antibody, human IgG4 S228P, lambda, V domains shown)
VH: EVQLLQSGAEVKKPGESLKISCKGSGYSFTSYWIGWVRQMPGKGLEWMGIIYPGDSDTRYSPSFQGQVTISADKSISTAYLQWSSLKASDTAMYYCARRGHYGDYFDYWGQGTLVTVSS
VL: SYELTQPPSVSVSPGQTARITCSGDALPKKYAYWYHQKSGQAPVLVIYEDRRRPSEIPERFSGSSSGTMATLTITGAQVEDEGVYFCYSRDRAGNQRVFGGGTQLTVLG
notes: pH-dependent anti-C2 antibody from a phage display library
With B1 the Fold diff (human C2 Q447A) was 4 fold, the Fold diff (human C2 K457A) was 33 fold and the Fold diff (human C2 K329A) was 2 fold. For the same binder, the Fold diff (human C2 F689A) was 1 fold.
